Laboratory results taken from paper PMC8884700, “Selection and Modelling of a New Single-Domain Intrabody Against TDP-43” (Frontiers in Molecular Biosciences, 2021).

T1: LexA fragment of RRMs (160-208) (Homo sapiens (species of cDNA not …, UniProt Q13148))
T1 construct: TDP-43, residues 160-208, containing the linker between RRM1 and RRM2; also called RRMs bait; source: yeast two-hybrid fusion (L40 yeast)
T1 chain: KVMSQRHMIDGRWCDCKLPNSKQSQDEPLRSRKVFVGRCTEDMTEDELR


Key:
LexA-RRM2 (192-258) = molecular target: T2, LexA-RRM2 (192-258) (Homo sapiens (species of cDNA not …, UniProt Q13148)); test: two-hybrid; IACT / in vivo epitope mapping in L40 yeast; LexA-fused bait, VP16-fused VHH prey; growth on SD-WHL (HIS3); liquid beta-gal (LacZ) for the full-length bait; conditions: partners not purified
T2 construct: TDP-43, RRM2, residues 192-258; also called RRM2 bait; source: yeast two-hybrid fusion (L40 yeast)
T2 sequence (Q13148 192-258): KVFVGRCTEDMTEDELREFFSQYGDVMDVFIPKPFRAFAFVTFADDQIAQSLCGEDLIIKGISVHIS

[1] = molecular target: T1, LexA fragment of RRMs (160-208); test: as above; conditions: partners not purified
[2] = molecular target: T3, LexA-TDP-43 full length (residues 1-414) (Homo sapiens (species of cDNA not …, UniProt Q13148)); test: as above; conditions: partners not purified
T3 construct: also called TDP-43 bait; source: yeast two-hybrid fusion (L40 yeast, pMicBD1 bait plasmid)
T3 sequence (Q13148 whole entry, the tested form may be a part): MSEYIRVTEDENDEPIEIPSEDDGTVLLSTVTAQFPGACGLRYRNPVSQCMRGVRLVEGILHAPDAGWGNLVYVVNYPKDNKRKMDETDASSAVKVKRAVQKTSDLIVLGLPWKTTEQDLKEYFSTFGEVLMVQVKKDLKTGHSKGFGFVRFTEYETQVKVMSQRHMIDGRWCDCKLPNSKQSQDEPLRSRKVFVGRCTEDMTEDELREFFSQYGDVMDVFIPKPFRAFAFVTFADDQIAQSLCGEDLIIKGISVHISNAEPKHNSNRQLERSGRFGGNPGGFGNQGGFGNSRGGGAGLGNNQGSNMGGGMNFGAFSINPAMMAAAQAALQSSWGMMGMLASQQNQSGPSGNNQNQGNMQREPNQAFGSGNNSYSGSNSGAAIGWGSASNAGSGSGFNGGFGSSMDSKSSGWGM

[3] = molecular target: T4, LexA-N-term + RRM1-2 (residues 1-258) (Homo sapiens (species of cDNA not …, UniProt Q13148)); test: as above; conditions: partners not purified
T4 construct: TDP-43, residues 1-258 (N-terminus plus RRM1 and RRM2); also called LexA- N-Term + RRM1-2 (1-258); N-terminal half of TDP-43; source: yeast two-hybrid fusion (L40 yeast)
T4 sequence (Q13148 1-258): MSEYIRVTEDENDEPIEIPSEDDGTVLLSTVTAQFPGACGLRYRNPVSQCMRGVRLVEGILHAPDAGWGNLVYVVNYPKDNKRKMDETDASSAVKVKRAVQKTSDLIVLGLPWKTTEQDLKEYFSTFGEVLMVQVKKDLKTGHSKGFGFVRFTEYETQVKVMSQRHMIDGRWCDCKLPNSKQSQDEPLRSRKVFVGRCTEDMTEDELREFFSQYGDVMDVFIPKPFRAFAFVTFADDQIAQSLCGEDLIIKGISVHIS

purified RRM1 of TDP-43 = molecular target: T5, purified RRM1 of TDP-43 (Homo sapiens, UniProt Q13148); test: ELISA; sandwich ELISA; VHH5 coated at 1, 3, 5 and 10 uM in carbonate buffer pH 9.6; TDP-43 fragments (10 ug/ml) added in PBS/BSA 1% pH 7.4, 2 h, room temperature; detected with rabbit anti-TDP-43 polyclonal and HRP secondary antibody; conditions: both partners purified
T5 construct: TDP-43, RRM1 domain; source: purified

[4] = molecular target: T6, purified RRM1-2 of TDP-43 (tandem RRM domains) (Homo sapiens, UniProt Q13148); test: as above; conditions: both partners purified
T6 construct: TDP-43, tandem RRM1 and RRM2 domains; Production and limits of the purified construct are not described; The docking used PDB 4bs2 (human TDP-43 tandem RRM1-2) as the putative antigen; source: purified

purified RRM2 of TDP-43 = molecular target: T7, purified RRM2 of TDP-43 (Homo sapiens, UniProt Q13148); test: ELISA; indirect ELISA; TDP-43 fragments coated at 1 uM in carbonate buffer pH 9.6; VHH5 added at 1, 3, 5 and 10 uM, 2 h, room temperature; detected with anti-camelid VHH [HRP]; conditions: both partners purified
T7 construct: TDP-43, RRM2 domain; source: purified
T7 sequence (Q13148 whole entry, looked up, the tested form may be a part): as the sequence (Q13148 whole entry, the tested form may be a part) above

binding result (LexA-RRM2 (192-258)) | binding result [1] | binding result [2] | binding result [3] | binding result (purified RRM1 of TDP-43) | binding result [4] | binding result (purified RRM2 of TDP-43) | Binder
binds | binds | binds | binds | – | – | – | anti-TDP-43 VHH5 intrabody (VP16 activation domain fusion, prey in pLinker220) (VHH, selected from a naive llama VHH SPLINT library; The modelling sections number residues 1-135, with H3 at 94-114; source: yeast two-hybrid fusion (L40 yeast, pLinker220 prey plasmid)) VHH: KVQLVESGGGSVQIGGSLRLSCRISEGSGNKYVMAWFRQAPGQEREFVGVISWSGTRTHYADSVRGRFTISRMDNTAYLQMDSLTPDDSGVYYCAASVSVPPFLELTAAHFGSWGQGTQVRVGS
– | – | – | – | binds | binds | binds | VHH5-I15A_M75K (VHH, also called purified VHH5; double mutant; not shown: SUMO, N-terminal, cleaved) VHH: KVQLVESGGGSVQAGGSLRLSCRISEGSGNKYVMAWFRQAPGQEREFVGVISWSGTRTHYADSVRGRFTISRKDNTAYLQMDSLTPDDSGVYYCAASVSVPPFLELTAAHFGSWGQGTQVRVGS
